Data: patent publication US20230272011A1 (AVACTA LIFE SCIENCES, published 2023)
Residue numbers refer to the chain shown, from its start. Names and notes keep the numbering of the source. Like-named read-outs stand apart in the source and are kept apart here. Each block holds one binder with its values, some of them ahead of it.

What was measured:
[1] = biological target: T1, human serum albumin (human, UniProt P02768 25-609); assay: BLI (Octet), biotinylated albumin on SA sensor, pH 7.4
T1 construct: mature; Bought protein; biotinylated in the Octet and HTRF assays; also called HSA; HuSA
Description: (§1) Biotinylated antigen was captured onto SA sensors at 1 μg/ml for 600 seconds in a buffer comprising PBS-T (0.01% Tween 20)+1% casein at either pH 6.0 or 7.4. Association was carried out for 300 seconds and dissociation for 600 seconds, and regeneration was performed using 10 mM glycine pH 1.5 (GE Healthcare) for 3×5 seconds. All steps were carried out at 1000 rpm and 25° C. Purified AFFIMER® polypeptide in two-fold serial dilutions was analyzed at a starting concentration of approximately 10× K_{D value}. Kinetics analyses were carried out using the Octet data analysis software, subtracting the reference sensor (loaded with antigen), aligning the Y-axis to baseline, and using inter-step correction to align association to dissociation. Savitzky-Golay filtering was applied and the data processed. Analysis of the data was carried out with a 1:1 model, global fit, Rₘₐₓ unlinked by sensor.

[2] = biological target: T2, cynomolgus serum albumin (cynomolgus); assay: as above
T2 construct: also called CSA; cyno serum albumin
Description: as §1

[3] = biological target: T1, human serum albumin; assay: BLI (Octet), biotinylated albumin on SA sensor, pH 6.0
Description: as §1

[4] = biological target: T3, mouse serum albumin (mouse, UniProt P07724 25-608); assay: as above
T3 construct: also called MSA
Description: as §1

[5] = biological target: T2, cynomolgus serum albumin; assay: as above
Description: as §1

[6] = biological target: T1, human serum albumin; assay: SPR (Biacore) binding response to HSA at pH 7.4, Affimer at 50 nM
From the text: (§2) Final clones were sequence-verified, produced from E. coli, and affinity purified as described in Example 3.

[7] = biological target: T1, human serum albumin; assay: SPR (Biacore) response to HSA, pH 7.4
From the text: as §2

[8] = biological target: T4, human PD-L1-Fc (R&D Systems) chimeric protein (human, UniProt Q9NZQ7 19-239); assay: SPR (Biacore T200), PD-L1-Fc amine-coupled to CM5, Affimer analyte
T4 construct: Bought reagent; also called rhPD-L1-Fc; huPD-L1; Fc part of the bought chimera not given, not described
Description: (§3) ILF dimer production from E. coli was performed as described in Example 3. Briefly, protein was purified using three stages: affinity capture, IEX, and preparative SEC. […] To analyze PD-L1-Fc binding kinetics, a Biacore T200 kinetic analysis was performed using running buffer HBS-EP+ and series S sensor CM5 (GE Healthcare) chip Fc2 immobilized with PD-L1-Fc (R&D Systems) in 10 mM sodium acetate pH 4.0 using amine coupling reagents (GE Healthcare). The concentration titration of ILF AFFIMER® polypeptides was run as analyte at a flow rate of 30 μl/min. […] with 3 mM NaOH (GE healthcare) for 20 seconds at 20 μl/min flow rate. The Fc2-1 data blank was subtracted and fit to a 1:1 Langmuir binding model (Biacore evaluation software; GE) to calculate an apparent KD value.

[9] = biological target: T4, human PD-L1-Fc (R&D Systems) chimeric …; assay: SPR (Biacore T200), PD-L1-Fc amine-coupled to CM5, Affimer analyte; apparent KD
Description: as §3

[10] = biological target: T1, human serum albumin; assay: SPR (Biacore), immobilised HSA, Affimer analyte
[11] = biological target: T4, human PD-L1-Fc (R&D Systems) chimeric …; assay: binding ELISA on coated human PD-L1 Fc ('Anti-PD-L1 ELISA')
Description: Briefly, human PD-L1 Fc (R&D Systems) chimeric protein was coated onto 96 well plates at 0.5 μg/mL in carbonate buffer. After saturation with 5% casein/PBS buffer, plates were washed and a dilution of conjugated AFFIMER® polypeptide or unconjugated control were incubated for 90 minutes. Plates were then washed, a biotinylated polyclonal anti-cystatin A antibody (R&D Systems) added, and the plates incubated for 1 hour. Plates were washed and bound AFFIMER® polypeptide was detected using streptavidin-HRP. After a last washing step, TMB was added and the plate was read at 450 nm.

[12] = biological target: T1, human serum albumin; assay: SPR (Biacore), immobilised HSA, Affimer analyte; remark: listed apart in the source
Description: Affinities for mouse, human, and cynomolgus serum were also measured at pH 7.4 for four (4) AFFIMER® binders using surface plasmon resonance (SPR) (FIG. 5, Table 5). […] A concentration titration of AFFIMER® monomers was run as analyte at a flow rate of 30 μl/min or 60 μl/min. Fc2-1, Fc3-1 and Fc4-1 kinetic data was blank subtracted and fit to a 1:1 Langmuir binding model (BIAcore Evalution software; GE) to calculate KD values. […]

[13] = biological target: T1, human serum albumin; assay: binding ELISA on coated HSA, pH 7.4
Description: After saturation with 5% PBS Casein pH 7.5, plates were washed and a dilution of AFFIMER® polypeptides or controls were incubated for 90 minutes. Plates were then washed, and a biotinylated polyclonal antibody anti-cystatin A (R&D Systems) was added for 1 hour. Plates were washed and AFFIMER® polypeptides were detected using streptavidin-HRP. After a last washing step, TMB was added for the development of the experiment and the plates were read at 450 nm.

[14] = biological target: T4, human PD-L1-Fc (R&D Systems) chimeric …; assay: binding ELISA on coated human PD-L1-Fc (table on the sheet is headed 'IC50 (nM)'; the text calls these values EC50)
Description: Briefly, human PD-L1-Fc (R&D Systems) chimeric protein was coated on 96 well plates at […] in carbonate buffer. After saturation with 5% casein/PBS buffer, the plates were washed and a dilution of AFFIMER® polypeptides or controls were incubated for 90 minutes. Plates were then washed and a biotinylated polyclonal antibody anti-cystatin A (R&D Systems) was added for 1 hour. Plates were washed and AFFIMER® polypeptides were detected using streptavidin-HRP. After a last washing step, TMB was added for the development of the experiment and plates were read at 450 nm.

T2 sequence (A2V9Z4 25-608): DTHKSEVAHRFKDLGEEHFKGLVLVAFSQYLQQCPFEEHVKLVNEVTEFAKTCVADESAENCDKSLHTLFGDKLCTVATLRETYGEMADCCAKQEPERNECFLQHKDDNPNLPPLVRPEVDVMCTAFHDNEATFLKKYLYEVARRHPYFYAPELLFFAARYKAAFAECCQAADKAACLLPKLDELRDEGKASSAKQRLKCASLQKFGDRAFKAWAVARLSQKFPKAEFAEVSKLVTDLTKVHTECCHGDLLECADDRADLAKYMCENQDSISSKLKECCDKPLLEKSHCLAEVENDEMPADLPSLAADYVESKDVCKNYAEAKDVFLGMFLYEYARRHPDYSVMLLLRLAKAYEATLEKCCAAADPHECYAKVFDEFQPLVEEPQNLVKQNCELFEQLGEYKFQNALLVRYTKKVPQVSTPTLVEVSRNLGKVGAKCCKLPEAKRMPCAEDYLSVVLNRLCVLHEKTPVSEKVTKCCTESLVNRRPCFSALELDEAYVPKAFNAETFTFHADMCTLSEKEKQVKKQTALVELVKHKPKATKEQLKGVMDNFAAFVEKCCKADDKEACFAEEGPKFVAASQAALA
T4 sequence (Q9NZQ7 19-239, change not shown): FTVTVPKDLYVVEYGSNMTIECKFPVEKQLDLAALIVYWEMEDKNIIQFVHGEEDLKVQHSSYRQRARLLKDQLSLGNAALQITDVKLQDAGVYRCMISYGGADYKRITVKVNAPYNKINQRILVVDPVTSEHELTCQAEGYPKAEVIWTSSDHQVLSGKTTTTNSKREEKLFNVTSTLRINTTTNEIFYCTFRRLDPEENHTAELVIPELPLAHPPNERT
T3 sequence (P07724 25-608 limits assumed): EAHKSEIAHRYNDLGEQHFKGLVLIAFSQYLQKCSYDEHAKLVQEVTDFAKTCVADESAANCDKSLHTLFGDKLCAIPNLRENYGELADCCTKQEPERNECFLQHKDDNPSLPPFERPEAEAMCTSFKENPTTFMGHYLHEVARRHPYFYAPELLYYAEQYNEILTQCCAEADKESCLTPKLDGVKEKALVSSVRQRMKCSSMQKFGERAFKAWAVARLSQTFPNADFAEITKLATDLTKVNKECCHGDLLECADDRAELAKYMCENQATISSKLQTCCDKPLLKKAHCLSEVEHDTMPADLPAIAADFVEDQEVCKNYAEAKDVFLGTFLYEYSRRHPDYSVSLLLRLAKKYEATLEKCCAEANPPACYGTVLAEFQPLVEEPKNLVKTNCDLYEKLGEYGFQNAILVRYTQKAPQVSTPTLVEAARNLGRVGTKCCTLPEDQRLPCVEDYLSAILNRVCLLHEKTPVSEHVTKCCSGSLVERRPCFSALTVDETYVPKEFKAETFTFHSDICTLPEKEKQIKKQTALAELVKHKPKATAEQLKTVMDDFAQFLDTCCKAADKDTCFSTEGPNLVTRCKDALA

B1: HSA-22 (designed binder)
chain: MIPRGLSEAKPATPEIQEIVDKVKPQLEEKTNETYGKLEAVQYKTQVLANWYQQRWPGSTNYYIKVRAGDNKYMHLKVFNGPWHNYGESSGADRVLTGYQVDKNKDDELTGFHHHHHH
Kd [1]: 152 nM
Kd [2]: 348 nM
Kd [3]: 44.7 nM
Kd [4]: 334 nM
Kd [5]: 146 nM

B4: HSA-41 F52A (designed binder)
chain: B1 chain with W51F, Y52A, Q54R, H84K, N85F, Y86R, G87N, E88T, S89D, S90R
binding response [6]: 2.2
binding result [7]: no binding (tested: 50 nM)

B5: HSA-41 W83A (designed binder)
chain: MIPRGLSEAKPATPEIQEIVDKVKPQLEEKTNETYGKLEAVQYKTQVLANFFQRRWPGSTNYYIKVRAGDNKYMHLKVFNGPAKFRNTDRGADRVLTGYQVDKNKDDELTGFHHHHHH
binding response [6]: 2.9
binding result [7]: no binding (tested: 50 nM)

B8: AVA04-261 XT10 (designed binder)
chain: MIPRGLSEAKPATPEIQEIVDKVKPQLEEKTNETYGKLEAVQYKTQVLAHAYGPRDWDSTNYYIKVRAGDNKYMHLKVFNGPPADHVLEEAADRVLTGYQVDKNKDDELTGFAEAAAKEAAAKEAAAKEAAAKEAAAKEAAAKMIPRGLSEAKPATPEIQEIVDKVKPQLEEKTNETYGKLEAVQYKTQVLANFFQRRWPGSTNYYIKVRAGDNKYMHLKVFNGPWKFRNTDRGADRVLTGYQVDKNKDDELTGFHHHHHH
koff [8]: 0.00826 s⁻¹
kon [8]: 875000 M⁻¹ s⁻¹
Kd [9]: 9.44 nM
Kd [10]: 9.7 nM
koff [10]: 0.00291 s⁻¹
kon [10]: 299000 M⁻¹ s⁻¹

B9: AVA04-251 XT14-800 (designed binder)
chain: MIPRGLSEAKPATPEIQEIVDKVKPQLEEKTNETYGKLEAVQYKTQVLAREGRQDWVLSTNYYIKVRAGDNKYMHLKVFNGPWVPFPHQQLADRVLTGYQVDKNKDDELTGFAEAAAKEAAAKEAAAKEAAAKEAAAKEAAAKMIPRGLSEAKPATPEIQEIVDKVKPQLEEKTNETYGKLEAVQYKTQVLAREGRQDWVLSTNYYIKVRAGDNKYMHLKVFNGPWVPFPHQQLADRVLTGYQVDKNKDDELTGFAEAAAKEAAAKEAAAKEAAAKEAAAKEAAAKMIPRGLSEAKPATPEIQEIVDKVKPQLEEKTNETYGKLEAVQYKTQVLANFFQRRWPGSTNYYIKVRAGDNKYMHLKVFNGPWKFRNTDRGADRVLTGYQVDKNKDDELTGFC
modifications: IRDye 800CW conjugated with maleimide chemistry (C-terminal cysteine construct)
EC50 (read off the curve) [11]: ~0.02 nM

B10: AVA04-251 XT14-Cys (designed binder)
single chain: B9 chain
EC50 (read off the curve) [11]: ~0.02 nM

B11: AVA04-251 BH-800 (designed binder)
chain: MIPRGLSEAKPATPEIQEIVDKVKPQLEEKTNETYGKLEAVQYKTQVLAREGRQDWVLSTNYYIKVRAGDNKYMHLKVFNGPWVPFPHQQLADRVLTGYQVDKNKDDELTGFAEAAAKEAAAKEAAAKEAAAKEAAAKEAAAKMIPRGLSEAKPATPEIQEIVDKVKPQLEEKTNETYGKLEAVQYKTQVLAREGRQDWVLSTNYYIKVRAGDNKYMHLKVFNGPWVPFPHQQLADRVLTGYQVDKNKDDELTGFC
modifications: IRDye 800CW conjugated with maleimide chemistry (C-terminal cysteine construct)
notes: E. coli product
EC50 (read off the curve) [11]: ~0.04 nM

B13: AVA04-251 XT16 (designed binder)
chain: MIPRGLSEAKPATPEIQEIVDKVKPQLEEKTNETYGKLEAVQYKTQVLANFFQRRWPGSTNYYIKVRAGDNKYMHLKVFNGPWKFRNTDRGADRVLTGYQVDKNKDDELTGFAEAAAKEAAAKEAAAKEAAAKEAAAKEAAAKMIPRGLSEAKPATPEIQEIVDKVKPQLEEKTNETYGKLEAVQYKTQVLAREGRQDWVLSTNYYIKVRAGDNKYMHLKVFNGPWVPFPHQQLADRVLTGYQVDKNKDDELTGFAEAAAKEAAAKEAAAKEAAAKEAAAKEAAAKMIPRGLSEAKPATPEIQEIVDKVKPQLEEKTNETYGKLEAVQYKTQVLAREGRQDWVLSTNYYIKVRAGDNKYMHLKVFNGPWVPFPHQQLADRVLTGYQVDKNKDDELTGFHHHHHH
Kd [12]: 3.95 nM
koff [12]: 0.00324 s⁻¹
kon [12]: 821000 M⁻¹ s⁻¹
EC50 [13]: 0.059 nM
EC50 [14]: 0.11 nM

Now from value to binder:

binding response [6]: 2.9
binding result [7]: no binding (tested: 50 nM)
B2: HSA-41 R55A (designed binder)
chain: B5 chain with R55A, A83W

binding response [6]: 2.8
binding result [7]: no binding (tested: 50 nM)
B3: HSA-41 F51A (designed binder)
chain: B5 chain with F51A, A83W

binding response [6]: 2.6
binding result [7]: no binding (tested: 50 nM)
B6: HSA-41 W56A (designed binder)
chain: B5 chain with W56A, A83W

Kd [1]: 113 nM
Kd [2]: 221 nM
Kd [3]: 136 nM
Kd [4]: 834 nM
Kd [5]: 231 nM
B7: HSA-37 (designed binder)
chain: MIPRGLSEAKPATPEIQEIVDKVKPQLEEKTNETYGKLEAVQYKTQVLAGFWASKWPGSTNYYIKVRAGDNKYMHLKVFNGPFTAVSKKDAADRVLTGYQVDKNKDDELTGFHHHHHH

EC50 (read off the curve) [11]: ~0.04 nM
B12: AVA04-251 BH-Cys (designed binder)
single chain: B11 chain

koff [8]: 0.00707 s⁻¹
kon [8]: 395000 M⁻¹ s⁻¹
Kd [9]: 17.9 nM
Kd [10]: 13.3 nM
koff [10]: 0.00357 s⁻¹
kon [10]: 269000 M⁻¹ s⁻¹
B14: AVA04-261 XT9 (designed binder)
chain: MIPRGLSEAKPATPEIQEIVDKVKPQLEEKTNETYGKLEAVQYKTQVLAHAYGPRDWDSTNYYIKVRAGDNKYMHLKVFNGPPADHVLEEAADRVLTGYQVDKNKDDELTGFGGGGSGGGGSGGGGSGGGGSGGGGSGGGGSMIPRGLSEAKPATPEIQEIVDKVKPQLEEKTNETYGKLEAVQYKTQVLANFFQRRWPGSTNYYIKVRAGDNKYMHLKVFNGPWKFRNTDRGADRVLTGYQVDKNKDDELTGFHHHHHH
